Key:
Type in all cases: biochemical
[1] = Acylating aldehyde dehydrogenase activity (formation of NADH, absorbance at 340 nm); conditions: yeast BY4741 transformants containing pNY8
Protocol: Acylating aldehyde dehydrogenase activity was determined by monitoring the formation of NADH, as measured by the increase in absorbance at 340 nm, as described by Husemann et al. (Appl. Microbiol. Biotechnol. 31:435-444 (1989)). In one typical assay, the specific activity of the Aid protein in the induced culture was determined to be 0.106 μmol mg^−1 min^−1 compared to 0.01 μmol mg^−1 min^−1 in the uninduced culture
(§1) For enzyme activity analysis, a single colony of each strain was streaked onto a fresh plate containing SD minimal drop out medium and incubated at 30° C. for 2 days. The cells on this plate were used to inoculate 20 mL of SD drop out medium and in a 125 mL shake flask and grown overnight at 30° C., with shaking at 250 rpm. The optical density (OD600) of the overnight culture was measured, and the culture was diluted to an OD600=0.1 in 250 mL of the same medium in a 1.0 L shake flask, and grown at 30° C. with shaking at 250 rpm to an OD600 of between 0.8 to 1.0. The cells were then harvested by centrifugation at 2000×g for 10 min, and resuspended in 20 mL of 50 mM Tris-HCl buffer, pH 8.5. Enzyme assays were performed as described above.

[2] = Acetoacetyl-CoA thiolase activity in cell free extracts (decrease in absorbance at 303 nm); conditions: yeast strain BY4741 (pNY6), ERG10 gene, in words
Protocol: Acetoacetyl-CoA thiolase activity in the cell free extracts was measured as degradation of a Mg^2+-acetoacetyl-CoA complex by monitoring the decrease in absorbance at 303 nm. Standard assay conditions were 100 mM Tris-HCl pH 8.0, 1 mM DTT (dithiothreitol) and 10 mM MgCl2. The cocktail was equilibrated for 5 min at 37° C.; then the cell-free extract was added. The reaction was initiated with the addition of 0.05 mM acetoacetyl-CoA plus 0.2 mM CoA. Protein concentration was measured by either the Bradford method or by the Bicinchoninic Kit (Sigma, catalog no. BCA-1). Bovine serum albumin (Bio-Rad, Hercules, Calif.) was used as the standard in both cases. In one typical assay, the specific activity of the ThlA protein in the induced culture was determined to be 16.0 μmol mg^−1 min^−1 compared to 0.27 μmol mg^−1 min^−1 in the uninduced culture.
For enzyme activity analysis, a single colony of each strain was streaked onto a fresh plate containing SD minimal drop out medium and incubated at 30° C. for 2 days. […] The optical density (OD600) of the overnight culture was measured, and the culture was diluted to an OD600=0.1 in 250 mL of the same medium in a 1.0 L shake flask, and grown at 30° C. with shaking at 250 rpm to an OD600 of between 0.8 to 1.0. […]

[3] = Trans-2-enoyl-CoA reductase (butyryl-CoA dehydrogenase) activity assayed as described by Hoffmeister et al.
Protocol: Trans-2-enoyl-CoA reductase activity was assayed as described by Hoffmeister et al. (J. Biol. Chem. 280, 4329-4338 (2005)). In one typical assay, the specific activity of the TER CAC0462 protein in the induced culture was determined to be 0.694 μmol mg^−1 min^−1 compared to 0.0128 μmol mg^−1 min^−1 in the uninduced culture.
Trans-2-enoyl-CoA reductase activity was assayed as described by Hoffmeister et al., J. Biol. Chem. 280:4329 (2005). In a typical assay, the specific activity of the EgTER(opt) protein in the induced BL21 (DE3)/pET23+::EgTER(opt) culture was determined to be 1.9 μmol mg^−1 min^−1 compared to 0.547 μmol mg^−1 min^−1 in the uninduced culture.
as §1

[4] = Crotonase activity assayed as described by Stern
Protocol: Crotonase activity was assayed as described by Stern (Methods Enzymol. 1, 559-566, (1954)). In one typical assay, the specific activity of the crotonase protein in the induced culture was determined to be 444 μmol mg^−1 min^−1 compared to 47 μmol mg^−1 min^−1 in the uninduced culture.
as §1

B1: Ald: butyraldehyde dehydrogenase encoded by ald from C. beijerinckii ATCC 35702, SEQ ID NO:12; in yeast from codon optimized aldy, SEQ ID NO:189 (protein, listed as Clostridium beijerinckii)
chain: MNKDTLIPTTKDLKVKTNGENINLKNYKDNSSCFGVFENVENAISSAVHAQKILSLHYTKEQREKIITEIRKAALQNKEVLATMILEETHMGRYEDKILKHELVAKYTPGTEDLTTTAWSGDNGLTVVEMSPYGVIGAITPSTNPTETVICNSIGMIAAGNAVVFNGHPCAKKCVAFAVEMINKAIISCGGPENLVTTIKNPTMESLDAIIKHPSIKLLCGTGGPGMVKTLLNSGKKAIGAGAGNPPVIVDDTADIEKAGRSIIEGCSFDNNLPCIAEKEVFVFENVADDLISNMLKNNAVIINEDQVSKLIDLVLQKNNETQEYFINKKWVGKDAKLFLDEIDVESPSNVKCIICEVNANHPFVMTELMMPILPIVRVKDIDEAIKYAKIAEQNRKHSAYIYSKNIDNLNRFEREIDTTIFVKNAKSFAGVGYEAEGFTTFTIAGSTGEGITSARNFTRQRRCVLAG
Ald specific activity towards butyryl-CoA [1]: approximately 0.07 U/mg

B2: ERG10: product of the Saccharomyces cerevisiae ERG10 gene, a functional ortholog of the thlA gene (protein, UniProt P41338 2-398, looked up)
Acetyl-CoA acetyltransferase: SQNVYIVSTARTPIGSFQGSLSSKTAVELGAVALKGALAKVPELDASKDFDEIIFGNVLSANLGQAPARQVALAAGLSNHIVASTVNKVCASAMKAIILGAQSIKCGNADVVVAGGCESMTNAPYYMPAARAGAKFGQTVLVDGVERDGLNDAYDGLAMGVHAEKCARDWDITREQQDNFAIESYQKSQKSQKEGKFDNEIVPVTIKGFRGKPDTQVTKDEEPARLHVEKLRSARTVFQKENGTVTAANASPINDGAAAVILVSEKVLKEKNLKPLAIIKGWGEAAHQPADFTWAPSLAVPKALKHAGIEDINSVDYFEFNEAFSVVGLVNTKILKLDPSKVNVYGGAVALGHPLGCSGARVVVTLLSILQQEGGKIGVAAICNGGGGASSIVIEKI
thiolase activity [2]: no thiolase activity

B3: EgTER(opt): butyryl-CoA dehydrogenase (TER) from Euglena gracilis, codon optimized gene lacking the normal mitochondrial presequence (protein, UniProt Q5EU90 69-539, looked up)
Trans-2-enoyl-CoA reductase: VPQMAEGFSGEATSAWAAAGPQWAAPLVAAASSALALWWWAARRSVRRPLAALAELPTAVTHLAPPMAMFTTTAKVIQPKIRGFICTTTHPIGCEKRVQEEIAYARAHPPTSPGPKRVLVIGCSTGYGLSTRITAAFGYQAATLGVFLAGPPTKGRPAAAGWYNTVAFEKAALEAGLYARSLNGDAFDSTTKARTVEAIKRDLGTVDLVVYSIAAPKRTDPATGVLHKACLKPIGATYTNRTVNTDKAEVTDVSIEPASPEEIADTVKVMGGEDWELWIQALSEAGVLAEGAKTVAYSYIGPEMTWPVYWSGTIGEAKKDVEKAAKRITQQYGCPAYPVVAKALVTQASSAIPVVPLYICLLYRVMKEKGTHEGCIEQMVRLLTTKLYPENGAPIVDEAGRVRVDDWEMAEDVQQAVKDLWSQVSTANLKDISDFAGYQTEFLRLFGFGIDGVDYDQPVDVEADLPSAAQQ
specific activity (trans-2-enoyl-CoA reductase) ([3]; induced BL21 (DE3)/pET23+::EgTER(opt) culture): 1.9 µmol/mg/min | butyryl-CoA dehydrogenase activity ([3]; pTrc99a-EgTER(opt) compared with CaTER constructs, in words): Higher

B4: crotonase: crotonase encoded by crt from C. acetobutylicum ATCC 824, SEQ ID NO:8 (protein, listed as Clostridium acetobutylicum)
chain: MELNNVILEKEGKVAVVTINRPKALNALNSDTLKEMDYVIGEIENDSEVLAVILTGAGEKSFVAGADISEMKEMNTIEGRKFGILGNKVFRRLELLEKPVIAAVNGFALGGGCEIAMSCDIRIASSNARFGQPEVGLGITPGFGGTQRLSRLVGMGMAKQLIFTAQNIKADEALRIGLVNKVVEPSELMNTAKEIANKIVSNAPVAVKLSKQAINRGMQCDIDTALAFESEAFGECFSTEDQKDAMTAFIEKRKIEGFKNR
Crt activity ([4]; yeast strain BY4741 (pNY11: pRS426-GPM1-crt-GPM1t)): 85 U/mg | Crt enzyme activity ([4]; yeast strain DPD5200 (BY4743/pNY103), standard conditions): 23.0 U/mg

B5: Ter: butyl-CoA dehydrogenase (ter) encoded by the codon optimized tery gene, SEQ ID NO:187 (protein)
chain: MLVKAKFVKGFIRDVHPYGCRREVLNQIDYCKKAIGFRGPKKVLIVGASSGFGLATRISVAFGGPEAHTIGVSYETGATDRRIGTAGWYNNIFFKEFAKKKGLVAKNFIEDAFSNETKDKVIKYIKDEFGKIDLFVYSLAAPRRKDYKTGNVYTSRIKTILGDFEGPTIDVERDEITLKKVSSASIEEIEETRKVMGGEDWQEWCEELLYEDCFSDKATTIAYSYIGSPRTYKIYREGTIGIAKKDLEDKAKLINEKLNRVIGGRAFVSVNKALVTKASAYIPTFPLYAAILYKVMKEKNIHENCIMQIERMFSEKIYSNEKIQFDDKGRLRMDDLELRKDVQDEVDRIWSNITPENFKELSDYKGYKKEFMNLNGFDLDGVDYSKDLDIELLRKLEP
modifications: Modified Ter protein
Ter activity ([3]; yeast BY4741 transformant of pNY9): 0.26 U/mg | Ter activity ([3]; yeast BY4741 transformed with pNY13, SD-His medium): 0.19 U/mg

Reference: patent US9297028B2, “Fermentive production of four carbon alcohols” (Butamax Advanced Biofuels LLC, priority 2005, dated 2016)
